Measurements: patent US7838288B2, “Modulators of odorant receptors” (Duke University, priority 2004, dated 2010)

T1: mouse odorant receptor OREG (Mus musculus, UniProt Q920P2)
T1 construct: expressed in transfected cells; host or cells: 293T cells (with or without co-transfected REEP1/RTP1/RTP2) and Hana3A cells (293T stably expressing mouse REEP1, RTP1, RTP2, Galpha-olf)
T1 sequence (Q920P2 1-313): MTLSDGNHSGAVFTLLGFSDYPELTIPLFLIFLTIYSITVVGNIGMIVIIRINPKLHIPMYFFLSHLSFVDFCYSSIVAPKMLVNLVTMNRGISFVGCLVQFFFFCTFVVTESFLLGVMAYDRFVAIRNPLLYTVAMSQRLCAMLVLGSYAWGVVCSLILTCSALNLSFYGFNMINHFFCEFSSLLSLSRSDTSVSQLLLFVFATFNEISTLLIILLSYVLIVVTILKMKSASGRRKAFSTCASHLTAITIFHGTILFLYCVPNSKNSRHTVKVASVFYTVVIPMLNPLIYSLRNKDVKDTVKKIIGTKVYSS

B1: RTP1: Receptor Transporting Protein 1; murine SEQ ID NO: 33, human SEQ ID NO: 37 (protein, listed as Mus musculus)
chain: MRIFRPWRLRCPALHLPSFPTFSIKCSLPPLPTDEDMCKSVTTGEWKKVFYEKMEEVKPADSWDFIIDPNLKHNVLAPGWKQYLELHASGRFHCSWCWHTWQSPHVVILFHMYLDKAQRAGSVRMRVFKQLCYECGTARLDESSMLEENIESLVDNLITSLREQCYGERGGHYRIHVASRQDNRRHRGEFCEACQEGIVHWKPSEKLLEEEATTYTFSRAPSPTKPQAETGSGCNFCSIPWCLFWATVLMLIIYLQFSFRTSV
B2: REEP1: Receptor Expression Enhancing Protein 1; murine SEQ ID NO: 21, human SEQ ID NO: 27 (protein, listed as Mus musculus)
chain: MVSWIISRLVVLIFGTLYPAYYSYKAVKSKDIKEYVKWMMYWIIFALFTTAETFTDIFLCWFPFYYELKIAFVAWLLSPYTKGSSLLYRKFVHPTLSSKEKEIDDCLVQAKDRSYDALVHFGKRGLNVAATAAVMAASKGQGALSERLRSFSMQDLTTIRGDGAPAPSGPPPPGTGRSSGKHSQPKMSRSASESAGSSGTA

Legend:
[1] = molecular target: T1, mouse odorant receptor OREG; experiment: CRE-luciferase reporter gene assay, OREG; assay type: cell-based; conditions: 293T cells; compared to OR alone or control pCI
From the text: Poor odorant evoked signaling activity in heterologous cell culture systems expressing ORs has been attributed to the poor cell surface expression of ORs. The identification of REEP and/or RTP allowed a direct assessment of this issue. A luciferase reporter gene assay was employed in which a cAMP responsive element (CRE) mediated luciferase gene expression (see FIG. 8A). Because OR activation leads to an increase in cAMP, activation of the mouse odorant receptor OREG by its ligand eugenol was measured in the presence and absence of REEP and/or RTP (see, e.g., Kajiya, K., et al. (2001) J Neurosci 21, 6018-6025; Touhara, K., et al., (1999) Proc Natl Acad Sci USA 96, 4040-4045; each herein incorporated by reference in their entireties). As reported previously, eugenol increased levels of OREG dependent luciferase activity (see, e.g., Katada, S., et al. (2003) Biochem Biophys Res Commun 305, 964-969; herein incorporated by reference in its entirety).
To facilitate analysis of odorant-OR interactions, 293T cell lines were established which stably express REEP1, RTP1, RTP2 and Gαolf, the G protein alpha subunit that couples to OR (see, e.g., Belluscio, L., et al. (1998) Neuron 20, 69-81; Jones, D. T., and Reed, R. R. (1989). Science 244, 790-795; each herein incorporated by reference in their entireties). To establish such cells, linearized expression vectors containing mouse REEP1, RTP1, RTP2 and Gαolf ORFs were transfected into 293T cells with PGK-Pac (puromycin resistant gene) (see, e.g., Watanabe, S., et al. (1995) Biochem Biophys Res Commun 213, 130-137; herein incorporated by reference in its entirety). […] Enhanced cell-surface expression was observed when OREG or other ORs were transfected in Hana3A cells and immunostained (see FIG. 10). […] Expression of Gαolf alone in 293T cells had little or no effect on OR activation using this assay.
Dual-Glo system (Promega) for luciferase assay was used. CRE-Luciferase (Stratagene) was used to measure the receptor activities. Renilla luciferase driven by constitutively active SV40 promoter (pRL-SV40: Promega) was used as an internal control. Cells were plated on poly-D-lysine coated 96 well plates (BIOCOAT, Beckton Dickinson). After 8 hours (for experiments shown in FIGS. 8B and 8C) or 12 hours (for experiments shown in FIG. 8D and FIG. 11) after transfection, the medium was replaced with CD293 chemically defined medium (Invitrogen) and the plates were incubated for one hour at 37 degrees C. The medium was replaced with 50 ul of odorant solutions dissolved in CD293 and incubated for 10 hours (for experiments shown in FIGS. 8B and 8C) or 4 hours (for experiments shown in FIG. 8D and FIG. 11) at 37 degrees C. The manufacture's protocol for measuring luciferase and Renilla luciferase activities was followed. Luminescence was measured using Wallac Victor 1420 (Perkin-Elmer). Normalized luciferase activity was calculated as [Luc (N)-Luc (0)]/RL (N), where Luc (N)=Luminescent count of a certain well, Luc (0)=Luminescent count without odorant for each OR, and RL (N)=Luminescent count of Renilla Luciferase of each well. For cAMP assays, cells were plated onto 24-well plate. […]. Prism software (Graphpad) was used for data analysis.

MOR203-1 [2] = experiment: Living-cell staining of cell-surface MOR203-1; assay type: cell-based, mouse; conditions: accessory protein co-transfected in 293T cells
From the text: After hypothesizing that mammalian ORs require accessory protein(s) for functional cell surface expression, a search was instituted for detecting such molecule(s). Long-SAGE (serial analysis of gene expression) libraries (see, e.g., Saha, S., et al., (2002) Nat Biotechnol 20, 508-512; herein incorporated by reference in its entirety) were constructed from single olfactory neurons as well as neurons from the vomeronasal organ and genes were collected that are expressed by these neurons. To identify candidate genes expressed by the olfactory neurons Digital Differential Display (see, e.g., http://www, followed by, .ncbi.nlm.nih.gov/UniGene/info_ddd.shtml) was also used. Candidate genes were investigated for ORFs that encode membrane associated proteins. Genes were selected with similarities to known chaperones and cloned the cDNAs from olfactory epithelium cDNAs. The mRNA expression of each gene was verified by in situ hybridization. After isolating and subcloning into mammalian expression vectors, each cDNA together with a mouse OR (MOR203-1) tagged with a 20 N-terminal amino acids of rhodopsin (Rho-tag), was transfected into 293T cells. We measured whether these clones had any effect on the cell-surface expression of ORs by staining living cells using antibodies against the Rho-tag (see, e.g., Laird, D. W., and Molday, R. S. (1988) Invest Opthalmol Vis Sci 29, 419-428; herein incorporated by reference in its entirety). When MOR203-1 was transfected alone, antibody staining detected only faint cell-surface expression in less than 1% of the cells. A schematic diagram outlining the screening procedure utilized with the present invention is provided at FIG. 1.
293T cells were maintained in minimal essential medium containing 10% fetal bovine serum (M10). Lipofectamine 2000 (Invitrogen) was used for transfection. In live-cell staining, 16 hours after transfection, cells were incubated in M10 containing anti rhodopsin antibody, 4D2 (see, e.g., Laird, D. W., and Molday, R. S. (1988) Invest Opthalmol V is Sci 29, 419-428; herein incorporated by reference in its entirety) and 15 mM NaN3 at 4 degrees C. for 1 hour. After washing, cells were incubated with Cy3-conjugated anti mouse IgG (Jackson Immunologicals), washed and mounted. For FACS analysis, 4D2 and PE-conjugated anti mouse IgG (Jackson Immunologicals) were used to monitor the Rho tagged receptor expression. Anti HA rabbit antibodies (Sigma) and Alexa 488 conjugated anti rabbit IgG (Molecular Probes) was used to stain the HA-β2 adrenergic receptor. To establish the Hana3a cells, 1 ug/ml of puromycin was used for selection. 96 colonies were picked and assayed using luciferase assay using OREG.

MOR203-1 [3] = experiment: Co-immunoprecipitation with HA-tagged MOR203-1; assay type: binding, mouse; conditions: Flag-tagged protein, 293T cells, HA-MOR203-1 precipitated
Protocol: Given the ability of REEP and/or RTP to promote cell-surface expression of ORs, it was hypothesized that they may also interact with OR proteins. This was assessed using co-immunoprecipitation assays. HA-tagged MOR203-1 and Flag-tagged REEP1, RTP1 or ICAP-1, a negative control (see, e.g., Zawistowski, J. S., et al. (2002) Hum Mol Genet. 11, 389-396; herein incorporated by reference in its entirety) were transfected in 293T cells. After the cell extracts were precipitated with anti-Flag antibodies, proteins were eluted in SDS-sample buffer at room temperature whereupon western blotting analysis was performed to detect the OR proteins. OR proteins were detected as high molecular weight bands after precipitation of REEP1 or RTP1 (see FIG. 7B, lanes 1 and 2). […] The present invention is not limited to a particular mechanism. Indeed, an understanding of the mechanism is not necessary to practice the present invention.
293T cells in 100 mm dishes were transfected with ORs, REEP1, and/or RTP1 cDNAs. 16 hours after transfection, cells were lysed in lysis buffer (50 mM Tris (7.4), 150 mM NaCl, 1% NP-40, 0.5 mM PMSF, 2 mM Benzamidene, 0.5 ug/ml Leupeptin, 1.4 ug/ml pepstatin A, 2.4 ug/ml chymostatin, 15 ug/ml aprotinin, 1 mM sodium orthovanadate). The lysis were incubated with anti-Flag M2 affinity gel (Sigma) or anti-HA affinity matrix (Roche) for 2 hours at 4 degrees C. and washed with lysis buffer. Subsequently, the bound proteins were eluted by incubation with SDS sample buffer at room temperature for 2 hours. SDS-PAGE and western blotting were performed according to Mini-Protean 3 Cell (Bio-Rad) instruction manual. ECL (Amersham) was used for detecting proteins on membranes.

| Molecule | OREG activity by luciferase, accessory protein co-expressed [1] | cell surface expression of MOR203-1 (MOR203-1 [2]) | co-precipitation with HA-MOR203-1 (MOR203-1 [3]) |
| --- | --- | --- | --- |
| B1 | enhanced luciferase activities compared to OR alone | enhanced both the number and staining intensity of cell surface expression | co-precipitated |
| B2 | enhanced luciferase activities compared to OR alone | enhanced both the number and staining intensity of cell surface expression | co-precipitated |
